Measurements reported in FireProtDB (doi:10.1016/j.jmb.2003.10.041).

B1: Bacteriorhodopsin, P02945 (parent)
chain: MLELLPTAVEGVSQAQITGRPEWIWLALGTALMGLGTLYFLVKGMGVSDPDAKKFYAITTLVPAIAFTMYLSMLLGYGLTMVPFGGEQNPIYWARYADWLFTTPLLLLDLALLVDADQGTILALVGADGIMIGTGLVGALTKVYSYRFVWWAISTAAMLYILYVLFFGFTSKAESMRPEVASTFKVLRNVTVVLWSAYPVVWLIGSEGAGIVPLNIETLLFMVLDVSAKVGFGLILLRSRAIFGEAEAPEPSAGDGAAATSD

Variants of: B1
Conditions: Halobacterium salinarum (strain ATCC 700922 / JCM 11081 / NRC-1); pH 6; 25 °C; SDS; Absorbance; sodium phosphate 10 mM; reversible: yes (90%); structure 2BRD; whole UniProt chain shown

Variant	ddG of mutation (higher = less stable) [kcal/mol]
MLELLPTAVEGVSQAQITGRPEWIWLALGTALMGLGTLYFLVKGMGVSDPDAKKAYAITTLVPAIAFTMYLSMLLGYGLTMVPFGGEQNPIYWARYADWLFTTPLLLLDLALLVDADQGTILALVGADGIMIGTGLVGALTKVYSYRFVWWAISTAAMLYILYVLFFGFTSKAESMRPEVASTFKVLRNVTVVLWSAYPVVWLIGSEGAGIVPLNIETLLFMVLDVSAKVGFGLILLRSRAIFGEAEAPEPSAGDGAAATSD [F55A]	1.6
MLELLPTAVEGVSQAQITGRPEWIWLALGTALMGLGTLYFLVKGMGVSDPDAKKFYAATTLVPAIAFTMYLSMLLGYGLTMVPFGGEQNPIYWARYADWLFTTPLLLLDLALLVDADQGTILALVGADGIMIGTGLVGALTKVYSYRFVWWAISTAAMLYILYVLFFGFTSKAESMRPEVASTFKVLRNVTVVLWSAYPVVWLIGSEGAGIVPLNIETLLFMVLDVSAKVGFGLILLRSRAIFGEAEAPEPSAGDGAAATSD [I58A]	1.9
MLELLPTAVEGVSQAQITGRPEWIWLALGTALMGLGTLYFLVKGMGVSDPDAKKFYAIATLVPAIAFTMYLSMLLGYGLTMVPFGGEQNPIYWARYADWLFTTPLLLLDLALLVDADQGTILALVGADGIMIGTGLVGALTKVYSYRFVWWAISTAAMLYILYVLFFGFTSKAESMRPEVASTFKVLRNVTVVLWSAYPVVWLIGSEGAGIVPLNIETLLFMVLDVSAKVGFGLILLRSRAIFGEAEAPEPSAGDGAAATSD [T59A]	2.2
MLELLPTAVEGVSQAQITGRPEWIWLALGTALMGLGTLYFLVKGMGVSDPAAKKFYAITTLVPAIAFTMYLSMLLGYGLTMVPFGGEQNPIYWARYADWLFTTPLLLLDLALLVDADQGTILALVGADGIMIGTGLVGALTKVYSYRFVWWAISTAAMLYILYVLFFGFTSKAESMRPEVASTFKVLRNVTVVLWSAYPVVWLIGSEGAGIVPLNIETLLFMVLDVSAKVGFGLILLRSRAIFGEAEAPEPSAGDGAAATSD [D51A]	0.5
MLELLPTAVEGVSQAQITGRPEWIWLALGTALMGLGTLYFLVKGMGVSDPDAKKFYAITTAVPAIAFTMYLSMLLGYGLTMVPFGGEQNPIYWARYADWLFTTPLLLLDLALLVDADQGTILALVGADGIMIGTGLVGALTKVYSYRFVWWAISTAAMLYILYVLFFGFTSKAESMRPEVASTFKVLRNVTVVLWSAYPVVWLIGSEGAGIVPLNIETLLFMVLDVSAKVGFGLILLRSRAIFGEAEAPEPSAGDGAAATSD [L61A]	0.1
MLELLPTAVEGVSQAQITGRPEWIWLALGTALMGLGTLYFLVKGMGVSDPDAKKFYAITALVPAIAFTMYLSMLLGYGLTMVPFGGEQNPIYWARYADWLFTTPLLLLDLALLVDADQGTILALVGADGIMIGTGLVGALTKVYSYRFVWWAISTAAMLYILYVLFFGFTSKAESMRPEVASTFKVLRNVTVVLWSAYPVVWLIGSEGAGIVPLNIETLLFMVLDVSAKVGFGLILLRSRAIFGEAEAPEPSAGDGAAATSD [T60A]	1
MLELLPTAVEGVSQAQITGRPEWIWLALGTALMGLGTLYFLVKGMGVSDPDAAKFYAITTLVPAIAFTMYLSMLLGYGLTMVPFGGEQNPIYWARYADWLFTTPLLLLDLALLVDADQGTILALVGADGIMIGTGLVGALTKVYSYRFVWWAISTAAMLYILYVLFFGFTSKAESMRPEVASTFKVLRNVTVVLWSAYPVVWLIGSEGAGIVPLNIETLLFMVLDVSAKVGFGLILLRSRAIFGEAEAPEPSAGDGAAATSD [K53A]	0.3
MLELLPTAVEGVSQAQITGRPEWIWLALGTALMGLGTLYFLVKGMGVSDPDAKAFYAITTLVPAIAFTMYLSMLLGYGLTMVPFGGEQNPIYWARYADWLFTTPLLLLDLALLVDADQGTILALVGADGIMIGTGLVGALTKVYSYRFVWWAISTAAMLYILYVLFFGFTSKAESMRPEVASTFKVLRNVTVVLWSAYPVVWLIGSEGAGIVPLNIETLLFMVLDVSAKVGFGLILLRSRAIFGEAEAPEPSAGDGAAATSD [K54A]	1.6
MLELLPTAVEGVSQAQITGRPEWIWLALGTALMGLGTLYFLVKGMGVSDPDAKKFYAITTLAPAIAFTMYLSMLLGYGLTMVPFGGEQNPIYWARYADWLFTTPLLLLDLALLVDADQGTILALVGADGIMIGTGLVGALTKVYSYRFVWWAISTAAMLYILYVLFFGFTSKAESMRPEVASTFKVLRNVTVVLWSAYPVVWLIGSEGAGIVPLNIETLLFMVLDVSAKVGFGLILLRSRAIFGEAEAPEPSAGDGAAATSD [V62A]	-0.7
MLELLPTAVEGVSQAQITGRPEWIWLALGTALMGLGTLYFLVKGMGVSAPDAKKFYAITTLVPAIAFTMYLSMLLGYGLTMVPFGGEQNPIYWARYADWLFTTPLLLLDLALLVDADQGTILALVGADGIMIGTGLVGALTKVYSYRFVWWAISTAAMLYILYVLFFGFTSKAESMRPEVASTFKVLRNVTVVLWSAYPVVWLIGSEGAGIVPLNIETLLFMVLDVSAKVGFGLILLRSRAIFGEAEAPEPSAGDGAAATSD [D49A]	0.9
MLELLPTAVEGVSQAQITGRPEWIWLALGTALMGLGTLYFLVKGMGVSDPDAKKFAAITTLVPAIAFTMYLSMLLGYGLTMVPFGGEQNPIYWARYADWLFTTPLLLLDLALLVDADQGTILALVGADGIMIGTGLVGALTKVYSYRFVWWAISTAAMLYILYVLFFGFTSKAESMRPEVASTFKVLRNVTVVLWSAYPVVWLIGSEGAGIVPLNIETLLFMVLDVSAKVGFGLILLRSRAIFGEAEAPEPSAGDGAAATSD [Y56A]	1.3
MLELLPTAVEGVSQAQITGRPEWIWLALGTALMGLGTLYFLVKGMGVSDADAKKFYAITTLVPAIAFTMYLSMLLGYGLTMVPFGGEQNPIYWARYADWLFTTPLLLLDLALLVDADQGTILALVGADGIMIGTGLVGALTKVYSYRFVWWAISTAAMLYILYVLFFGFTSKAESMRPEVASTFKVLRNVTVVLWSAYPVVWLIGSEGAGIVPLNIETLLFMVLDVSAKVGFGLILLRSRAIFGEAEAPEPSAGDGAAATSD [P50A]	0.2
